What was measured:
SAPKR2 = SAPKR2 (Homo sapiens, UniProt P45984); assay: In vitro kinase assay of kinase expressed in COS-7 cells; assay type: biochemical; conditions: 10 μM peptide, FIG. 5
Protocol: (§1) For in vitro kinase assay of type I and type II TGFβ family receptors, p38α and SAPKα2 kinases, COS-7 cells were transfected with the kinase expression vectors or the control empty pcDNA3 vector using the DEAE-dextran method. Proteins were extracted in a lysis buffer (50 mM Tris-HCl, pH 7.5, 50 mM NaCl, 1% NP-40, 10 μg/mL aprotinin, 0.1 mM PMSF). HA-tagged proteins (ALK1 to ALK7, p38R, SAPKR2) were immunoprecipitated with anti-HA antibody (12CA5; Roche); His6-tagged proteins (type II receptors) were precipitated with Ni-NTA agarose (Qiagen). The precipitates were washed in extraction buffer, with 20 mM imidazole for Ni-NTA agarose-precipitated proteins, and two times with kinase buffer (20 mM HEPES, pH 7.4, 10 mM MgCl2, 2 mM MnCl2, 1 mM DTT). The kinase reaction was initiated by addition of 20 μL of kinase buffer containing 0.5 μCi of [γ-32P]ATP, 5.0 μM ATP, and inhibitory peptides at a final concentration of 10 μM. The reaction was performed at 22° C. for 20 min and terminated by addition of SDS-containing sample buffer and boiling for 5 min. The reaction products were analyzed by SDS-PAGE and exposure in a Fuji X2000 phosphorimager. Equal loading was controlled by immunoblotting aliquots of the samples with a HA probe (Y-11; Santa Cruz) or anti-His antibody (Qiagen).
(§2) To evaluate whether the substrate-mimicking peptides affect kinases of type I and type II reptors of the TGFβ family, we studied the influence of peptides on authophosphorylation of all known mammalian type I receptors [ALK-1, ActR-I (ALK-2), BMPR-IA (ALK-3), ActR-IB (ALK-4), TβR-I (ALK-5), BMPR-IB (ALK-6), and ALK-7], TβRII, ActR-II, BMPR-II, p38R, and SAPKR2 (FIG. 5). The kinases were expressed in COS-7 cells and purified by using specific anti-tag antibodies or Ni-NTA agarose, and kinase activity was tested in the presence of peptides.

p38R = p38R (Homo sapiens, UniProt Q16539); assay: as above; assay type: biochemical; conditions: 10 μM peptide, FIG. 5
Protocol: as §1, §2

GST-TβR-I = target: T1, GST-TβR-I (Homo sapiens, UniProt P36897, T204D); assay: GST-TβR-I autophosphorylation assay; assay type: biochemical; conditions: peptides at 1 and 10 μM, FIG. 4A
T1 construct: the complete cytoplasmic part (amino acid residues 148-503) of constitutively active TβR-I (T204D) FLAG-tagged at the C-terminus; made in house; host or cells: E. coli
T1 sequence (P36897 148-503 T204D): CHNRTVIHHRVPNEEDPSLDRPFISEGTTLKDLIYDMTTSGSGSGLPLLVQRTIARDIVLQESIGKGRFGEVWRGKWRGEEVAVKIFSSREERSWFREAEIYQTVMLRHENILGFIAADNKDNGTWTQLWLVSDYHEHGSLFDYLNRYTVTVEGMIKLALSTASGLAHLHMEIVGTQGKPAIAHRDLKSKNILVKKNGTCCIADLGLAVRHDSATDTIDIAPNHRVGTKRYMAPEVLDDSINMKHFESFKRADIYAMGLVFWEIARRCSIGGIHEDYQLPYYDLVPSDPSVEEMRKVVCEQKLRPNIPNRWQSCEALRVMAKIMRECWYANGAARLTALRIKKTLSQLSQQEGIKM
Protocol: In vitro kinase assay: GST-TβRI activity was assayed in vitro using the known TβR-I substrates GST-Smad3deltaMH1, GST-Smad2; GST-Smad1 was used as a control for specificity. The reaction mixture (20 μl) contained 20 mM HEPES (pH 7.4), 10 mM MgCl2, 2 mM MnCl2, 1 mM dithiothreitol (DTT), 5 μM ATP plus 0.5 μCi [γ^32P]ATP (Redivue, Amersham Biosciences), and inhibitors at different concentrations. The reaction was initiated by an addition of 0.02 μg purified GST-TβRI, followed by incubation at 22° C. for 20 min. Reaction was terminated by addition of 5 μl of 5× SDS-sample buffer. Samples were subjected to SDS-PAGE followed by analysis in a FujiX2000 phosphorimager. For all in vitro enzyme assays, the percent inhibition was calculated as 100×(1-Ai/A0), where Ai and A0 are levels of GST-Smad phosphorylation in the presence and absence of inhibitors, respectively. […] Phosphorylated GST-Smad3deltaMH1 and autophosphorylated GST-TβRI were analyzed by tryptic phosphopeptide mapping, as described previously.
A GST-TβR-I autophosphorylation assay was performed in the absence or presence of antp-Sm2S (SEQ ID NO:3), antp-Sm2A (SEQ ID NO:2) and antp-Sm5A (SEQ ID NO:4) peptides at concentrations of 1 and 10 μM, as indicated (FIG. 4A).

Mv1Lu cells = assay: Growth inhibition assay, [3H]thymidine incorporation; assay type: cell-based; conditions: peptide 50 μM, TGFβ1 0.1 ng/ml, 24 hours; for Reversion of the inhibitory action of TGFβ1 on DNA synthesis: FIG. 7
Protocol: Growth inhibition assay: Growth inhibition assay with MV1Lu cells, using evaluation of [^3H]thymidine incorporation, was performed as described earlier. Briefly, cells were preincubated with peptides for 30 min, and then treated or not with TGFβ1 (0.1 ng/ml) for 24 h. During the last two hours of incubation, [^3H]thymidine was added. Radioactivity incorporated into DNA was measured in a scintillation counter. No cytotoxic effects of peptides were observed after 24 h incubation with cells, as evaluated by observation of cells in a microscope.
To explore whether the antp-Sm2A (SEQ ID NO:2) peptide can interfere with the TGFβ-dependent effects on cells, we performed an assay with Mv1Lu cells, which are widely used in studies of TGFβ effects and are potently growth-inhibited by TGFβ [29]. […] [^3H]thymidine was added to cells for last two hours of incubation, and radioactivity incorporated into DNA was measured.

Chain of p38R (Q16539 whole entry): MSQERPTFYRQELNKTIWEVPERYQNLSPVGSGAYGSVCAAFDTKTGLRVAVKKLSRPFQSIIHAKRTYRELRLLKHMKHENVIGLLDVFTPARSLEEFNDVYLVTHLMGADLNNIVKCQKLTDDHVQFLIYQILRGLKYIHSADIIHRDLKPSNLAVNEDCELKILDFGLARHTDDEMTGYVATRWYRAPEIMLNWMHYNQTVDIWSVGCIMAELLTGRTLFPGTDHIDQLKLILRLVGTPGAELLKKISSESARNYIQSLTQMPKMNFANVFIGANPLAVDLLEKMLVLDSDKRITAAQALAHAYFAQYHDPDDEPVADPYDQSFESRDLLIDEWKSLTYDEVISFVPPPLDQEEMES

Sequence	Effect on SAPKR2 kinase (SAPKR2)	Effect on p38R kinase (p38R)	Inhibition of autophosphorylation of GST-TβR-I (GST-TβR-I)	Reversion of the inhibitory action of TGFβ1 on DNA synthesis (Mv1Lu cells)	Inhibition of [3H]thymidine incorporation in response to TGFβ1 (Mv1Lu cells) [%]
RQIKIWFQNRRMKWKKTQMGSPSVRCSSMS (listed as Homo sapiens) [antp-Sm2S, penetratin fused to the C-terminus of wild-type Smad2]	without any effect	without any effect	inhibited autophosphorylation	reverted to a significant extent	
RQIKIWFQNRRMKWKKTQMGSPSVRCSAMA (listed as Homo sapiens) [antp-Sm2A]	without any effect	without any effect	had a stronger effect	reverted to a significant extent	26

Source: patent US20050136043A1, “TGFbeta signaling inhibitors” (Ludwig Institute for Cancer Research, priority 2003, published 2005)
